# Target: human recombinant TGFβ1 (Peprotech) (human) (UniProt P01137)
# Test: cell-based or functional assay
# human recombinant TGFβ1 (Peprotech) (human), sequence (P01137 279-390 limits assumed): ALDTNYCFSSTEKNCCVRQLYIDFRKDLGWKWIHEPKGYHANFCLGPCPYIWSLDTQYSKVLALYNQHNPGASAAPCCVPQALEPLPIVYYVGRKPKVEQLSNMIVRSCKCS
"fold-change in IFNy secretion, sub-optimal aCD3/aCD28 beads (1:300) + 10 ng/ml TGFβ versus beads alone [fold]","fold-change in IFNy secretion, αCD3/αCD28 beads (1:100) + 10 ng/ml TGFβ versus beads alone [fold]",Substance
1.9,1.2,"BM2, ectodomain of TGFβ receptor II (TGFβRII) with transmembrane and intracellular domains of CD137 (from UniProt P37173 23-166; Q07011 187-255)"
0.7,0.87,"BM3, truncated version of TGFβRII (from UniProt P37173 23-199) (receptor)"

# — patent EP4509522A1
